What was measured:
[1] = target: GST fusion protein with mGluR1α Ile812 to Ser943 attached to the C-terminus of GST (UniProt P23385)
[2] = target: myc-mGluR1α (mGluR1α tagged with a c-myc epitope inserted in frame after Ala30) (UniProt P23385)
[3] = target: GST fusion protein with mGluR1α Asn889 to Leu1058 fused to the C-terminus of GST (UniProt P23385)
[4] = tested on: spectrin in brain membranes

Sequence of myc-mGluR1α (mGluR1α tagged with a c-myc epitope inserted in frame after Ala30) (P23385 other isoform, or with tags, fused parts or gaps): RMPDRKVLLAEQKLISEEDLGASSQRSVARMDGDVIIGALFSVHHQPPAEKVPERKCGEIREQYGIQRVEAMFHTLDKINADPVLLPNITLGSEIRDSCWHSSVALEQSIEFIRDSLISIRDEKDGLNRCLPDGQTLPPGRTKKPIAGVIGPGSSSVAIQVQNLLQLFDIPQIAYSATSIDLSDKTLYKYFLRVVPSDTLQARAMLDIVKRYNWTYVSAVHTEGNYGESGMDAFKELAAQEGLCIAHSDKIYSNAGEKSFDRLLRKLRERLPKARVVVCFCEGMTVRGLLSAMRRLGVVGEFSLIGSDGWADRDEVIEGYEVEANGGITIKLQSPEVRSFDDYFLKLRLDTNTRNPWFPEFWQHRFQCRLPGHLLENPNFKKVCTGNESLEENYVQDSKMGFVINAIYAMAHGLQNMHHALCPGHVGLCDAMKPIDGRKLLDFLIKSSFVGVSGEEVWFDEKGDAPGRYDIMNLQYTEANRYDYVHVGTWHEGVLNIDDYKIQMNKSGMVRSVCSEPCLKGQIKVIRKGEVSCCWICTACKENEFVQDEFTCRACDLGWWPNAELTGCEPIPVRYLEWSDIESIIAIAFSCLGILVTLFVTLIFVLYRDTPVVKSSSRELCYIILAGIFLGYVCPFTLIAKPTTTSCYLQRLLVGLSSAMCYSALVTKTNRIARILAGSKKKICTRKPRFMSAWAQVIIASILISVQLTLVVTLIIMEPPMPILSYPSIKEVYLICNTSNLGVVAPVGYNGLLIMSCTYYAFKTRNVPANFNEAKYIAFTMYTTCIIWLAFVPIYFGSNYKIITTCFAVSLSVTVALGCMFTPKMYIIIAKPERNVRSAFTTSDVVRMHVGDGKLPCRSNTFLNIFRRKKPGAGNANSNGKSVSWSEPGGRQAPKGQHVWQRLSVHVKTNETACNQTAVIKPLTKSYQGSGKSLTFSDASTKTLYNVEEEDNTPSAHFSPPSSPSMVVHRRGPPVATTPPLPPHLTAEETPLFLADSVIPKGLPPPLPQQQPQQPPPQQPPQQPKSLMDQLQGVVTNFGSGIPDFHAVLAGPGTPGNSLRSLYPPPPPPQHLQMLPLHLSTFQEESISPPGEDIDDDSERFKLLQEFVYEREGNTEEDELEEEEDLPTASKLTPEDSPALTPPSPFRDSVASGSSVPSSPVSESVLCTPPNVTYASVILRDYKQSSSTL
Sequence of GST fusion protein with mGluR1α Asn889 to Leu1058 fused to the C-terminus of GST (P23385 889-1058): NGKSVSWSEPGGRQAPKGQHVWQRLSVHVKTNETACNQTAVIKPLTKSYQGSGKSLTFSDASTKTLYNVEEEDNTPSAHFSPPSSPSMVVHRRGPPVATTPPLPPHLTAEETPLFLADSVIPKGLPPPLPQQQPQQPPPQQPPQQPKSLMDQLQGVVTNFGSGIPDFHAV
Sequence of GST fusion protein with mGluR1α Ile812 to Ser943 attached to the C-terminus of GST (P23385 812-943): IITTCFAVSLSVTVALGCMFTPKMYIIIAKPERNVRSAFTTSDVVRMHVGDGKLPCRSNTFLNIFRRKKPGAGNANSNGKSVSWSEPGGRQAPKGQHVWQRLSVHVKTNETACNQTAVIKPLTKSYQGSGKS

µ-calpain
digestion of the purified GST fusion protein with calpain in the presence of 2 mM CaCl2 [1]: The GST-mGluR1α fusion protein became about 2 kD smaller after digestion | cleavage of immunoprecipitated myc-mGluR1α by µ-calpain (30 min), silver staining and Western blots [2]: the density of the 145 kD band that represents the whole-length mGluR1α decreased dose-dependently with calpain treatment | digestion of the GST fusion protein with calpain, Edman sequencing [3]: after digestion with calpain, this fusion protein generated a 10 kD fragment | truncation in brain membranes treated with purified calpain and calcium [4]: truncation of both mGluR1 and spectrin was observed
